Assay results published in patent publication US10947289B2, “Glyco-modified atrial natriuretic peptide” (priority 2013, dated 2021).

Legend:
human GC-A = biological target: T1, human GC-A (Homo sapiens, UniProt P16066); test: cGMP elevating activity in CHO/human GC-A cells (Test Example 1); type: cell-based
T1 construct: expressed in transfected cells; host or cells: CHO cells
T1 sequence (P16066 33-1061): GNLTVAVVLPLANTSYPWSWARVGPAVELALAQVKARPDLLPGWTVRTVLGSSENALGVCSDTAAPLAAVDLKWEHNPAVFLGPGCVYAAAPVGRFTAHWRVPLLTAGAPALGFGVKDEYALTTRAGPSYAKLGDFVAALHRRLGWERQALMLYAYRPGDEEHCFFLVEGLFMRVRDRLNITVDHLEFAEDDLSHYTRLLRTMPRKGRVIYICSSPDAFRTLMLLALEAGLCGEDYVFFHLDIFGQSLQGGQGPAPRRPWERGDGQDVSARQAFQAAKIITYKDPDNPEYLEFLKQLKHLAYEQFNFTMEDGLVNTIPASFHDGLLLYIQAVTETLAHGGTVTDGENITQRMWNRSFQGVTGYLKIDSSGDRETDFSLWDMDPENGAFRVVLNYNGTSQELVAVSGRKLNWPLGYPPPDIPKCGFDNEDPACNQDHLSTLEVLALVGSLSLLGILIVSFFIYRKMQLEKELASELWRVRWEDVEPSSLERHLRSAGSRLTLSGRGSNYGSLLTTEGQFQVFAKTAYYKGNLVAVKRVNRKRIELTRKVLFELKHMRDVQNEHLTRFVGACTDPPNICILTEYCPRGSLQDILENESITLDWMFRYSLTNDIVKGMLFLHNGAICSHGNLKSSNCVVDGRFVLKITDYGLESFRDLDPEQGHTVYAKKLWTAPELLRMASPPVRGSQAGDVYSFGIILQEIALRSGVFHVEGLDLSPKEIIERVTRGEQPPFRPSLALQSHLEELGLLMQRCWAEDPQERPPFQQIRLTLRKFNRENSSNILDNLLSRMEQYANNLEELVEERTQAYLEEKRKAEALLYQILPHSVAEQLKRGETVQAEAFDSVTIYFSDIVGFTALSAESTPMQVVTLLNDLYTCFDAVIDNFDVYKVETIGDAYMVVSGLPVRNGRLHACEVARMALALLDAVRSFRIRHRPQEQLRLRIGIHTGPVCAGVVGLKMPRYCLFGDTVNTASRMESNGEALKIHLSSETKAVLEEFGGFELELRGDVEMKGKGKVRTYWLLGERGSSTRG
Summary of the method: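 CHO cells stably expressing human GC-A, pre-incubated 10 min at room temperature in 1.6 mM IBMX/KRB, then exposed to test peptide 15 min in CO2 incubator. Lysate cGMP measured by HTRF. Activity (T/C) scaled so solvent-only = 0 and 1 nM ANP = 1.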

[1] = Detection of test substance in rat plasma by LC-MS/MS (Test Example 3); type: in vivo; conditions: rat plasma, 100 nmol/kg i.v., LC-MS/MS; time at which the test substance was finally detected
Description: Before the administration and 15, 30, 60, 90, 120, 180, and 240 minutes after the administration, blood was sampled (200 μL/sampling) over time from the jugular vein. The blood samples were immediately left on ice.
The collected blood samples were centrifuged at 5000 rpm at 4° C. for 5 minutes by use of a centrifuge (Sigma 4K15, rotor: Nr12130-H). The separated plasma samples were divided into two types (samples for PK measurement and for cGMP measurement) and stored at −80° C. until measurement.
An internal standard (20 μL (500 nM) of a stable isotope of hANP) and an acetic acid mixed solvent (AcOH/distilled water/DMSO=5/3/2, v/v/v) were added to 50 μL of each rat plasma sample prepared in (1) and then mixed therewith. The mixture was transferred to Amicon Ultra-0.5 50K (Millipore Corp., MA) and centrifuged at 14000 rpm at 15° C. for 30 minutes. The obtained filtrate was transferred to Amicon Ultra-0.5 3K (Millipore Corp., MA) and centrifuged again under the aforementioned conditions. The solution remaining on the filter was recovered and transferred to a 96-well deep well plate. The content of the test substance was measured by LC-MS/MS (LC: Shimadzu LC-10ADVP (Shimadzu Corp.), MS/MS: API 4000 QTrap (AB SCIEX)) to calculate the concentration in plasma. The time at which the test substance was finally detected is shown in the rightmost column of Table 2.

Compound	EC50 (human GC-A) [nM]	Maximum time of detection after administration [1] [h]
CC[C@H](C)[C@@H]1NC(=O)[C@H](CCCNC(=N)N)NC(=O)[C@H](CC(=O)O)NC(=O)[C@H](CCSC)NC(=O)[C@H](CCCNC(=N)N)NC(=O)CNC(=O)CNC(=O)[C@H](Cc2ccccc2)NC(=O)[C@@H](NC(=O)[C@H](CO)NC(=O)[C@H](CO)NC(=O)[C@H](CCCNC(=N)N)NC(=O)[C@H](CCCNC(=N)N)NC(=O)[C@H](CC(C)C)NC(=O)[C@H](CO)NC(=O)CCOCCOCCOCCOCCNC(=O)[C@H](CC(=O)N[C@@H]2O[C@H](CO)[C@@H](O[C@@H]3O[C@H](CO)[C@@H](O[C@@H]4O[C@H](CO[C@H]5O[C@H](CO)[C@@H](O)[C@H](O)[C@@H]5O[C@@H]5O[C@H](CO)[C@@H](O[C@@H]6O[C@H](CO[C@]7(C(=O)O)C[C@H](O)[C@@H](NC(C)=O)[C@H]([C@H](O)[C@H](O)CO)O7)[C@H](O)[C@H](O)[C@H]6O)[C@H](O)[C@H]5NC(C)=O)[C@@H](O)[C@H](O[C@H]5O[C@H](CO)[C@@H](O)[C@H](O)[C@@H]5O[C@@H]5O[C@H](CO)[C@@H](O[C@@H]6O[C@H](CO[C@]7(C(=O)O)C[C@H](O)[C@@H](NC(C)=O)[C@H]([C@H](O)[C@H](O)CO)O7)[C@H](O)[C@H](O)[C@H]6O)[C@H](O)[C@H]5NC(C)=O)[C@@H]4O)[C@H](O)[C@H]3NC(C)=O)[C@H](O)[C@H]2NC(C)=O)NC(=O)CO[C@@H]2O[C@H](CO)[C@@H](O[C@@H]3O[C@H](CO)[C@@H](O[C@@H]4O[C@H](CO[C@H]5O[C@H](CO)[C@@H](O)[C@H](O)[C@@H]5O[C@@H]5O[C@H](CO)[C@@H](O[C@@H]6O[C@H](CO[C@]7(C(=O)O)C[C@H](O)[C@@H](NC(C)=O)[C@H]([C@H](O)[C@H](O)CO)O7)[C@H](O)[C@H](O)[C@H]6O)[C@H](O)[C@H]5NC(C)=O)[C@@H](O)[C@H](O[C@H]5O[C@H](CO)[C@@H](O)[C@H](O)[C@@H]5O[C@@H]5O[C@H](CO)[C@@H](O[C@@H]6O[C@H](CO[C@]7(C(=O)O)C[C@H](O)[C@@H](NC(C)=O)[C@H]([C@H](O)[C@H](O)CO)O7)[C@H](O)[C@H](O)[C@H]6O)[C@H](O)[C@H]5NC(C)=O)[C@@H]4O)[C@H](O)[C@H]3NC(C)=O)[C@H](O)[C@H]2NC(C)=O)CSSC[C@@H](C(=O)N[C@@H](CC(N)=O)C(=O)N[C@@H](CO)C(=O)N[C@@H](Cc2ccccc2)C(=O)N[C@@H](CCCNC(=N)N)C(=O)N[C@@H](Cc2ccc(O)cc2)C(=O)O)NC(=O)CNC(=O)[C@H](CC(C)C)NC(=O)CNC(=O)[C@H](CO)NC(=O)[C@H](CCC(N)=O)NC(=O)[C@H](C)NC(=O)CNC1=O [Compound 2-13, SG-(SG-)Asn-PEG(3)-hANP(1-28)]	0.34	3
CC[C@H](C)[C@@H]1NC(=O)[C@H](CCCNC(=N)N)NC(=O)[C@H](CC(=O)O)NC(=O)[C@H](CCSC)NC(=O)[C@H](CCCNC(=N)N)NC(=O)CNC(=O)CNC(=O)[C@H](Cc2ccccc2)NC(=O)[C@@H](NC(=O)[C@H](CO)NC(=O)[C@H](CO)NC(=O)[C@H](CCCNC(=N)N)NC(=O)[C@H](CCCNC(=N)N)NC(=O)[C@H](CC(C)C)NC(=O)[C@H](CO)NC(=O)CCOCCOCCOCCOCCOCCOCCOCCOCCOCCOCCOCCOCCNC(=O)CO[C@@H]2O[C@H](CO)[C@@H](O[C@@H]3O[C@H](CO)[C@@H](O[C@@H]4O[C@H](CO[C@H]5O[C@H](CO)[C@@H](O)[C@H](O)[C@@H]5O[C@@H]5O[C@H](CO)[C@@H](O[C@@H]6O[C@H](CO[C@]7(C(=O)O)C[C@H](O)[C@@H](NC(C)=O)[C@H]([C@H](O)[C@H](O)CO)O7)[C@H](O)[C@H](O)[C@H]6O)[C@H](O)[C@H]5NC(C)=O)[C@@H](O)[C@H](O[C@H]5O[C@H](CO)[C@@H](O)[C@H](O)[C@@H]5O[C@@H]5O[C@H](CO)[C@@H](O[C@@H]6O[C@H](CO[C@]7(C(=O)O)C[C@H](O)[C@@H](NC(C)=O)[C@H]([C@H](O)[C@H](O)CO)O7)[C@H](O)[C@H](O)[C@H]6O)[C@H](O)[C@H]5NC(C)=O)[C@@H]4O)[C@H](O)[C@H]3NC(C)=O)[C@H](O)[C@H]2NC(C)=O)CSSC[C@@H](C(=O)N[C@@H](CC(N)=O)C(=O)N[C@@H](CO)C(=O)N[C@@H](Cc2ccccc2)C(=O)N[C@@H](CCCNC(=N)N)C(=O)N[C@@H](Cc2ccc(O)cc2)C(=O)O)NC(=O)CNC(=O)[C@H](CC(C)C)NC(=O)CNC(=O)[C@H](CO)NC(=O)[C@H](CCC(N)=O)NC(=O)[C@H](C)NC(=O)CNC1=O [Compound 2-30, SG-PEG(11)-hANP(1-28)]	–	4
CC[C@H](C)[C@@H]1NC(=O)[C@H](CCCNC(=N)N)NC(=O)[C@H](CC(=O)O)NC(=O)[C@H](CCSC)NC(=O)[C@H](CCCNC(=N)N)NC(=O)CNC(=O)CNC(=O)[C@H](Cc2ccccc2)NC(=O)[C@@H](NC(=O)[C@H](CO)NC(=O)[C@H](CO)NC(=O)[C@H](CCCNC(=N)N)NC(=O)[C@H](CCCNC(=N)N)NC(=O)[C@H](CC(C)C)NC(=O)[C@H](CO)NC(=O)CCOCCOCCOCCOCCNC(=O)CO[C@@H]2O[C@H](CO)[C@@H](O[C@@H]3O[C@H](CO)[C@@H](O[C@@H]4O[C@H](CO[C@H]5O[C@H](CO)[C@@H](O)[C@H](O)[C@@H]5O[C@@H]5O[C@H](CO)[C@@H](O[C@@H]6O[C@H](CO[C@]7(C(=O)O)C[C@H](O)[C@@H](NC(C)=O)[C@H]([C@H](O)[C@H](O)CO)O7)[C@H](O)[C@H](O)[C@H]6O)[C@H](O)[C@H]5NC(C)=O)[C@@H](O)[C@H](O[C@H]5O[C@H](CO)[C@@H](O)[C@H](O)[C@@H]5O[C@@H]5O[C@H](CO)[C@@H](O[C@@H]6O[C@H](CO[C@]7(C(=O)O)C[C@H](O)[C@@H](NC(C)=O)[C@H]([C@H](O)[C@H](O)CO)O7)[C@H](O)[C@H](O)[C@H]6O)[C@H](O)[C@H]5NC(C)=O)[C@@H]4O)[C@H](O)[C@H]3NC(C)=O)[C@H](O)[C@H]2NC(C)=O)CSSC[C@@H](C(=O)N[C@@H](CC(N)=O)C(=O)N[C@@H](CO)C(=O)N[C@@H](Cc2ccccc2)C(=O)N[C@@H](CCCNC(=N)N)C(=O)N[C@@H](Cc2ccc(O)cc2)C(=O)O)NC(=O)CNC(=O)[C@H](CC(C)C)NC(=O)CNC(=O)[C@H](CO)NC(=O)[C@H](CCC(N)=O)NC(=O)[C@H](C)NC(=O)CNC1=O [Compound 2-29, SG-PEG(3)-hANP(1-28)]	–	2
CC[C@H](C)[C@@H]1NC(=O)[C@H](CCCNC(=N)N)NC(=O)[C@H](CC(=O)O)NC(=O)[C@H](CCSC)NC(=O)[C@H](CCCNC(=N)N)NC(=O)CNC(=O)CNC(=O)[C@H](Cc2ccccc2)NC(=O)[C@@H](NC(=O)[C@H](CO)NC(=O)[C@H](CO)NC(=O)[C@H](CCCNC(=N)N)NC(=O)[C@H](CCCNC(=N)N)NC(=O)[C@H](CC(C)C)NC(=O)[C@H](CO)NC(=O)CO[C@@H]2O[C@H](CO)[C@@H](O[C@@H]3O[C@H](CO)[C@@H](O[C@@H]4O[C@H](CO[C@H]5O[C@H](CO)[C@@H](O)[C@H](O)[C@@H]5O[C@@H]5O[C@H](CO)[C@@H](O)[C@H](O)[C@H]5NC(C)=O)[C@@H](O)[C@H](O[C@H]5O[C@H](CO)[C@@H](O)[C@H](O)[C@@H]5O[C@@H]5O[C@H](CO)[C@@H](O)[C@H](O)[C@H]5NC(C)=O)[C@@H]4O)[C@H](O)[C@H]3NC(C)=O)[C@H](O)[C@H]2NC(C)=O)CSSC[C@@H](C(=O)N[C@@H](CC(N)=O)C(=O)N[C@@H](CO)C(=O)N[C@@H](Cc2ccccc2)C(=O)N[C@@H](CCCNC(=N)N)C(=O)N[C@@H](Cc2ccc(O)cc2)C(=O)O)NC(=O)CNC(=O)[C@H](CC(C)C)NC(=O)CNC(=O)[C@H](CO)NC(=O)[C@H](CCC(N)=O)NC(=O)[C@H](C)NC(=O)CNC1=O [Compound 2-11, AG(7)-hANP(1-28)]	–	2
